T1: cynomolgus monkey (Macaca fascicularis) ROR2, full length, on CHO cells (cynomolgus monkey (Macaca fascicularis), UniProt Q01974 34-943 (human entry))
T1 construct: also called ROR2mf; CHO-mfROR2
T1 chain: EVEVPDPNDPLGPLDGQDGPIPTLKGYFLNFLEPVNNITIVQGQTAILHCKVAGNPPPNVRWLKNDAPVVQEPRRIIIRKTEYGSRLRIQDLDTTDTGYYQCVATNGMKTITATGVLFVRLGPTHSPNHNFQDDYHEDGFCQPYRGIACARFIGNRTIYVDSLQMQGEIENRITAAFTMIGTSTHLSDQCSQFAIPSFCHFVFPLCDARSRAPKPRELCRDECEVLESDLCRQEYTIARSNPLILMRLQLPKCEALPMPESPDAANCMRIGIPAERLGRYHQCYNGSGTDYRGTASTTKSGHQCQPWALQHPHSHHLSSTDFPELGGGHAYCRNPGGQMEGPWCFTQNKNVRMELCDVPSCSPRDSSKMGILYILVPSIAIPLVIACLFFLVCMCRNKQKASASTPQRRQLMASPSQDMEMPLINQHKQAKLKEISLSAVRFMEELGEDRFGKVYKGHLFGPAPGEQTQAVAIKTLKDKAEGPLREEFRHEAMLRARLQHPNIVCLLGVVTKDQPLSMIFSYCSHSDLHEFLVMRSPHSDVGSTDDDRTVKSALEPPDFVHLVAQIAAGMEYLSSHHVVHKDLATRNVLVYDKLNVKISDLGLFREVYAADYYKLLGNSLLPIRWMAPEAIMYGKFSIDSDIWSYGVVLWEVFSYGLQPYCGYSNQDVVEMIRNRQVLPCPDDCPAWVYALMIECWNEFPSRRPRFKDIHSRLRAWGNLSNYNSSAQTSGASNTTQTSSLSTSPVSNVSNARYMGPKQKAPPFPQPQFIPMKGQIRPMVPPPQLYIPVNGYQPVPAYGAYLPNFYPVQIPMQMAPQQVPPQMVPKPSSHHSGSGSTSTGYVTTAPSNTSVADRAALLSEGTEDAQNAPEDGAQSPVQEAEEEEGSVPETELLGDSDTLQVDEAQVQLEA

B1: IgG1-ROR2-A-HC7LC4-FEAR (antibody)
heavy: EVQLLESGGGLVQPGGSLRLSCAASGFSLSSYSMSWVRQAPGKGLEWIGVIYVNSKTWYADSVKGRFTISKDNSKNTVYLQMNSLRAEDTATYYCARGDAGYTTNSWLWGQGTLVTVSSASTKGPSVFPLAPSSKSTSGGTAALGCLVKDYFPEPVTVSWNSGALTSGVHTFPAVLQSSGLYSLSSVVTVPSSSLGTQTYICNVNHKPSNTKVDKRVEPKSCDKTHTCPPCPAPEFEGGPSVFLFPPKPKDTLMISRTPEVTCVVVAVSHEDPEVKFNWYVDGVEVHNAKTKPREEQYNSTYRVVSVLTVLHQDWLNGKEYKCKVSNKALPAPIEKTISKAKGQPREPQVYTLPPSREEMTKNQVSLTCLVKGFYPSDIAVEWESNGQPENNYKTTPPVLDSDGSFFLYSRLTVDKSRWQQGNVFSCSVMHEALHNHYTQKSLSLSPGK
VL: DIQLTQSPSSLSASVGDRVTITCQASESIDNYLSWYQQKPGKAPKLLIYQAFKLASGVPSRFRGSGSGTDFTLTISSLQPEDFATYYCQSYSGISTTAFGGGTKVEIK
notes: Humanized variant
B2: IgG1-ROR2-A-HC1LC2-FEAR (antibody, V domains shown)
VH: QSVLESGGGLVQPGGSLRLSCTVSGFSLSSYSMSWVRQAPGKGLEWIGVIYVNSKTWYANWAKGRFTISKTSTTVDLKITSPTAEDTATYFCARGDAGYTTNSWLWGQGTLVTVSS
VL: B1 VL with D1A, I2F, Q3E, P80S, K104E, E106V
notes: Humanized variant
B3: IgG1-ROR2-A-HC4LC3-FEAR (antibody)
heavy: B1 heavy with A23T, A24V, D61N, S62W, V63A
light: AFELTQSPSSLSASVGDRVTITCQASESIDNYLSWYQQKPGKAPKLLIYQAFKLASGVPSRFRGSGSGTDFTLTISSLQPEDFATYYCQSYSGISTTAFGGGTKVEIKRTVAAPSVFIFPPSDEQLKSGTASVVCLLNNFYPREAKVQWKVDNALQSGNSQESVTEQDSKDSTYSLSSTLTLSKADYEKHKVYACEVTHQGLSSPVTKSFNRGEC
notes: Humanized variant, full-length IgG1 with L234F, L235E, D265A, K409R; also called IgG1-ROR2-HC4LC3
B4: IgG1-ROR2-A-HC1LC3-FEAR (antibody)
heavy: QSVLESGGGLVQPGGSLRLSCTVSGFSLSSYSMSWVRQAPGKGLEWIGVIYVNSKTWYANWAKGRFTISKTSTTVDLKITSPTAEDTATYFCARGDAGYTTNSWLWGQGTLVTVSSASTKGPSVFPLAPSSKSTSGGTAALGCLVKDYFPEPVTVSWNSGALTSGVHTFPAVLQSSGLYSLSSVVTVPSSSLGTQTYICNVNHKPSNTKVDKRVEPKSCDKTHTCPPCPAPEFEGGPSVFLFPPKPKDTLMISRTPEVTCVVVAVSHEDPEVKFNWYVDGVEVHNAKTKPREEQYNSTYRVVSVLTVLHQDWLNGKEYKCKVSNKALPAPIEKTISKAKGQPREPQVYTLPPSREEMTKNQVSLTCLVKGFYPSDIAVEWESNGQPENNYKTTPPVLDSDGSFFLYSRLTVDKSRWQQGNVFSCSVMHEALHNHYTQKSLSLSPGK
VL: B1 VL with D1A, I2F, Q3E
notes: Humanized variant
B5: IgG1-ROR2-A-HC1LC4-FEAR (antibody)
heavy: B4 heavy
VL: B1 VL
notes: Humanized variant
B6: IgG1-ROR2-A-HC2LC4-FEAR (antibody)
heavy: B4 heavy with D76Y, K78Q, I79M, T80N, P82L, T83R
VL: B1 VL
notes: Humanized variant
B7: IgG1-ROR2-A-HC2LC1-FEAR (antibody, V domains shown)
VH: B2 VH with D76Y, K78Q, I79M, T80N, P82L, T83R
VL: B1 VL with D1A, I2F, Q3E, L33C, P80S, K104E, E106V
notes: Humanized variant
B8: IgG1-ROR2-A-HC1LC1-FEAR (antibody, V domains shown)
VH: B2 VH
VL: B1 VL with D1A, I2F, Q3E, L33C, P80S, K104E, E106V
notes: Humanized variant
B9: IgG1-ROR2-A-HC2LC3-FEAR (antibody)
heavy: B4 heavy with D76Y, K78Q, I79M, T80N, P82L, T83R
VL: B1 VL with D1A, I2F, Q3E
notes: Humanized variant
B10: IgG1-ROR2-A-HC2LC2-FEAR (antibody, V domains shown)
VH: B2 VH with D76Y, K78Q, I79M, T80N, P82L, T83R
VL: B1 VL with D1A, I2F, Q3E, P80S, K104E, E106V
notes: Humanized variant
B11: bsIgG1-huCD3-H101G-FEAL×chROR2-A-FEAR (bispecific antibody)
heavy 1: not shown
light 1: not shown
heavy 2: B4 heavy with L4E, G9R, Q12T, G15T, S16P, R18T, S20T, A84T, Q108P
light 2: AFELTQTPASVSEPVGGTVTIKCQASESIDNYCSWYQQKPGQPPKLLIYQAFKLASGVPSRFRGSGSGTQFTLTISDLESDDAATYYCQSYSGISTTAFGGGTEVVVKRTVAAPSVFIFPPSDEQLKSGTASVVCLLNNFYPREAKVQWKVDNALQSGNSQESVTEQDSKDSTYSLSSTLTLSKADYEKHKVYACEVTHQGLSSPVTKSFNRGEC

Numbering of substitutions follows the chain as printed. Numbers in names are those of the source.

One may read the Kd as the free concentration of one partner at which half of the binding sites on the other are occupied at equilibrium, for simple one-to-one binding. What is called koff is a measure of how fast the partners let go of each other. In general, kon refers to the second-order rate constant of association.

T2 sequence (Q01974 34-403): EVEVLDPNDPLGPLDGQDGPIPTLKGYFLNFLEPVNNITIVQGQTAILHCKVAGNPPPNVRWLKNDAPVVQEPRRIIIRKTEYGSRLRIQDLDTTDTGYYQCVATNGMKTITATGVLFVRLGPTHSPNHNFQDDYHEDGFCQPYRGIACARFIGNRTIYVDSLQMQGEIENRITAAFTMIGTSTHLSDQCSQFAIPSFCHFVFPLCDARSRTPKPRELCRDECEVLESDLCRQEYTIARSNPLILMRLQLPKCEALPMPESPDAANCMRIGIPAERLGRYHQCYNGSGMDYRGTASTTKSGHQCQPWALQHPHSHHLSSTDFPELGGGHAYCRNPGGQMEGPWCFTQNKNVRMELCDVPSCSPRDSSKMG

One test concerns the target T2, his-tagged ROR2 extracellular domain (ROR2-ECD, G&P Biosciences, cat. no. FCL0192) (human, UniProt Q01974 34-403).
T2 construct: Bought protein; also called human ROR2-ECD; recombinant human ROR2-ECD; not shown: his tag
In words: BLI (Octet), antibody on anti-human IgG Fc sensor, ROR2-ECD 1.56-100 nM as analyte. In general terms: Biolayer interferometry detects binding as a change in optical thickness at a sensor tip.
In the case of B1, binding was characterised by a dissociation constant (Kd) of 5.6 nM, the dissociation rate constant (koff) came out at 0.0032 s⁻¹ and the kon worked out at 570000 M⁻¹ s⁻¹.

The molecule B2 displayed a Kd of 1.9 nM, a koff of 0.0011 s⁻¹ and an on-rate constant (kon) of 590000 M⁻¹ s⁻¹.

B3 yielded a dissociation constant (Kd) of 1.1 nM, a koff of 0.00068 s⁻¹ and a kon of 600000 M⁻¹ s⁻¹.

Turning to B4, the affinity, expressed as Kd, was 1.8 nM; the koff turned out to be 0.00097 s⁻¹; the kon was determined as 550000 M⁻¹ s⁻¹.

Regarding B5, binding was characterised by a dissociation constant (Kd) of 2 nM, the koff was 0.0012 s⁻¹ and the on-rate constant (kon) stood at 560000 M⁻¹ s⁻¹.

B6 had a Kd of 2.2 nM, a dissociation rate constant (koff) of 0.0011 s⁻¹ and a kon of 510000 M⁻¹ s⁻¹.

B7 came in with a dissociation constant Kd of 1.7 nM, a dissociation rate constant (koff) of 0.00085 s⁻¹ and a kon of 510000 M⁻¹ s⁻¹.

For the molecule B8, the Kd came out at 1.6 nM, the koff came out at 0.00096 s⁻¹ and the kon was 590000 M⁻¹ s⁻¹.

On to B9, for which the Kd is 2 nM, the off-rate constant (koff) came out at 0.001 s⁻¹ and the kon is 490000 M⁻¹ s⁻¹.

B10 yielded a Kd of 1.8 nM, a dissociation rate constant (koff) of 0.00089 s⁻¹ and an on-rate (kon) of 510000 M⁻¹ s⁻¹.

The target in another test is T3, cynomolgus monkey ROR2 in which threonine at position 322 is replaced by methionine (ROR2mf-T322M) (cynomolgus monkey (Macaca fascicularis), UniProt Q01974 34-943 (human entry)).
T3 construct: also called RORmf-T322M
The experiment in a line: flow cytometry on CHO cells expressing ROR2mf-T322M. For orientation: Flow cytometry measures light scatter and fluorescence of single cells or particles in a stream.
For B11, the binding result was “binds”.

The target of a further test is human (Homo sapiens) ROR2, full length, on cells (human, UniProt Q01974 34-943). In words: cell-based or functional assay.
human (Homo sapiens) ROR2, full length, on cells, sequence (Q01974 34-943 limits assumed): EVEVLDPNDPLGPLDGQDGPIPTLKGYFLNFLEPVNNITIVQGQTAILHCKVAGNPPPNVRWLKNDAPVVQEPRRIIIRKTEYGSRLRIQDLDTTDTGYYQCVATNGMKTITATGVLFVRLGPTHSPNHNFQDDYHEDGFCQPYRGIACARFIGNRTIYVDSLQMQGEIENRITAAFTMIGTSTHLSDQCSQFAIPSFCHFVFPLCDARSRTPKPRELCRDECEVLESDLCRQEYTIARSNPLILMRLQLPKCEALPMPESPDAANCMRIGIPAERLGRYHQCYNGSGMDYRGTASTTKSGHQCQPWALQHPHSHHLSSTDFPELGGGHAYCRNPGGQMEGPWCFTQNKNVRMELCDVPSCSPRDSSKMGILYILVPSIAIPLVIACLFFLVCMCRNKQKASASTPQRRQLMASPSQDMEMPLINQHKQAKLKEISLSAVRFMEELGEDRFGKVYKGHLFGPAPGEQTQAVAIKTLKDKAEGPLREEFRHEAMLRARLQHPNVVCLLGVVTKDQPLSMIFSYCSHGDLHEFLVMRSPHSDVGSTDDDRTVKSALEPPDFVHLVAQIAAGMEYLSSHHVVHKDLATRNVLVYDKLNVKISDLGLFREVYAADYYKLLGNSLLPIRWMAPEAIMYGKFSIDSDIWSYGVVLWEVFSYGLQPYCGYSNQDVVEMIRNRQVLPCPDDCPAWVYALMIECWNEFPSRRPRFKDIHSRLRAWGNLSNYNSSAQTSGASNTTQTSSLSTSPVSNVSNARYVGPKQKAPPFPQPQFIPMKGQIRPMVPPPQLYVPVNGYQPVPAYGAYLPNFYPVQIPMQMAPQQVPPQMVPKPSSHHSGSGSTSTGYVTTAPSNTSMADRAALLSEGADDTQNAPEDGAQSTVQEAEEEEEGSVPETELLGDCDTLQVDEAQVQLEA
For the molecule B11, the “IC50 of T cell mediated cytotoxicity, 786-O cells, human T cells, E:T 8:1” value came out at 0.088 µg/mL; the “IC50 of T cell mediated cytotoxicity, Hela cells, human T cells, E:T 8:1” value turned out to be 0.424 µg/mL; the “IC50 of T cell mediated cytotoxicity, LCLC-103H cells, human T cells, E:T 8:1” value worked out at 0.511 µg/mL; the “IC50 of T cell mediated cytotoxicity, NCI-H23 cells, human T cells, E:T 8:1” value was 0.58 µg/mL. Also, the “IC50 of T cell mediated cytotoxicity, NCI-H1650 cells, human T cells, E:T 8:1” value worked out at 0.693 µg/mL and the “IC50 of T cell mediated cytotoxicity, ZR-75-1 cells, human T cells, E:T 8:1” value was found to be 0.424 µg/mL.

The target in another test is T1, cynomolgus monkey (Macaca fascicularis) …. In words: flow cytometry on CHO cells expressing cynomolgus monkey ROR2. The protocol: Next, binding of bispecific CD3×ROR2 antibodies and monospecific ROR2 antibodies to CHO cells expressing human or cynomolgus monkey ROR2 was determined, using 5×10⁴ transfected cells/well and an antibody concentration range from 0.01-10 μg/mL.
Turning to B3, the binding result was “binds”.

The record behind these values is US20230365714A1 (published 2023).
